Assay [1] deals with fluorescein-ahx-ahx-GGpYGG. The experiment in a line: fluorescence polarisation. A general note: Fluorescence polarisation rises when a labelled molecule tumbles more slowly, as on binding a larger partner.
For assay [2], the target named is fluorescein-ahx-ahx-EPQpYEEIPIYL
Briefly: fluorescence polarisation.

Assay [3] addresses biotin-ahx-ahx-EPQpYEEIPIYL
Briefly: BLI. (In BLI a coated tip is dipped into the sample, and binding shifts an interference pattern.)

The target in assay [4] is Fyn SH2 variant V17 (T4N/A5S/K8L), His-tag protein (human). The experiment in a line: ELISA.
In assay [5] the target is 9 of the 22 variants that have the K8L mutation (His-tag proteins). Briefly: ELISA.
The target of assay [6] is Fyn SH2 triple mutant superbinder (T4V/S6A/K8L), His-tag protein (human). Briefly: ELISA. In general terms: ELISA stands for enzyme-linked immunosorbent assay.
Assay [7] has as its target Fyn SH2 variant V13 (T3S/T4R/S6A/K8L), His-tag protein (human). Briefly: ELISA.
Assay [8] has as its target Fyn SH2 variant V24 (T3S/T4S/S6A/K8L), His-tag protein (human). The experiment in a line: ELISA.
The target in assay [9] is Fyn SH2 variant V3 (T3S/T4W/A5G), His-tag protein (human). The experiment in a line: ELISA.
For assay [10], the target named is Fyn SH2 variant V10 (T4V/K8L), His-tag protein (human). The experiment in a line: ELISA.

Consider 8 molecules from doi:10.1101/2020.10.30.361790.

Square brackets hold non-standard residues; d marks the D form. Ends that are not written are not given here. * marks the point of attachment. Biotin = O=C1N[C@H]2[C@H](CS[C@H]2CCCCC(=O)*)N1; pY = N[C@@H](Cc1ccc(OP(=O)(O)O)cc1)C(=O)O; Ahx = NCCCCCC(=O)O

In the case of “Fyn SH2 variant V10 (T4V/K8L), His-tag protein (designed binder)”, the dissociation constant (Kd) in [1] stood at 2700 nM; in assay [2] it was 32 nM.
“Fyn SH2 variant V17 (T4N/A5S/K8L), His-tag protein (designed binder)”: in assay [2], the Kd is under 40 nM, the fold affinity increase over the wild type Fyn SH2 domain was determined as 4 fold and the fold weaker than the triple mutant worked out at 4 fold.
Consider “Fyn SH2 triple mutant superbinder (T4V/S6A/K8L), His-tag protein (designed binder)”, for which the equilibrium dissociation constant (Kd) in assay [3] was found to be 55 nM; in assay [1], 680 nM; in assay [2], 20 nM. In assay [3], this molecule displayed a koff of 0.000888 s⁻¹. In [3], this molecule registered a kon of 16300 M⁻¹ s⁻¹.
In the case of “Fyn SH2 variant V13 (T3S/T4R/S6A/K8L), His-tag protein (designed binder)”, the equilibrium dissociation constant (Kd) in assay [1] is 620 nM; in assay [2], 12 nM.
On to “Fyn SH2 variant V3 (T3S/T4W/A5G), His-tag protein (designed binder)”, for which the dissociation constant (Kd) in [3] came out at 55 nM; in [1] it was 1630 nM; in assay [2], 38 nM. For the same molecule, the koff in assay [3] amounted to 0.000463 s⁻¹.
For “wild type human Fyn SH2 domain (Cys-less), His-tag protein (from UniProt P06241 149-246) (domain or fragment)”, in assay [3], the Kd is 154 nM, the koff was found to be 0.01 s⁻¹ and the association rate constant (kon) was found to be 64800 M⁻¹ s⁻¹. In addition, the dissociation constant Kd in assay [2] was found to be 327 nM.
As to “Fyn SH2 variant V24 (T3S/T4S/S6A/K8L), His-tag protein (designed binder)”, the equilibrium dissociation constant (Kd) in assay [1] was 2570 nM; in [2] it was 23 nM.
Take {Biotin-Ahx-Ahx}-EPQ[pY]EEIPIYL [biotin-ahx-ahx-EPQpYEEIPIYL]: the EC50 was under 200 nM in assay [4]; 21 to 500 nM in [5]; 21 nM in assay [6]; under 200 nM in assay [7]; under 200 nM in [8]; 15 nM in [9]. Moreover, the half-maximal effective concentration (EC50) in assay [10] stood at 175 nM.

Usually Kd stands for a measure of binding affinity in units of concentration. Read a low Kd as tighter binding. A word on the koff: it is a measure of how fast the partners let go of each other. Higher therefore signals fast dissociation. In general, kon refers to the rate constant with which the complex forms. Broadly, the EC50 is the concentration at which the effect is half-maximal. The low end stands for an effect from little substance, the high end for a need for much substance.
